Data set [1] has as its target Aureochrome 1a from Phaeodactylum tricornutum, full-length protein (PtAu1a_(full)) (Phaeodactylum tricornutum). Nature of the data set: SEC-MALS; light: pre-incubated at 20°C under continuous blue light (400 µW cm^-2 at 450 nm) for 20 min; 100 µl of 150 µM protein on Superdex 200 10/300 GL in buffer C, RT, column continuously illuminated; monomer-dimer.
The target is the same in data set [2]. Nature of the data set: SEC-MALS; dark: pre-incubated at 20°C in the dark for 20 min; 100 µl of 150 µM protein on Superdex 200 10/300 GL in buffer C (20 mM HEPES pH 7.5, 100 mM NaCl, 10 mM MgCl2, 5% glycerol), RT, column kept in the dark; monomer-dimer.
Data set [3] concerns the target PtAu1aLOV, LOV domain of PtAu1a containing its N- and C-terminal α-helical extensions A´α and Jα (Phaeodactylum tricornutum). Nature of the data set: SEC-MALS; light: pre-incubated at 20°C under continuous blue light (400 µW cm^-2 at 450 nm) for 20 min; 100 µl of 150 µM protein on Superdex 200 10/300 GL in buffer C, RT, column continuously illuminated; monomer-dimer.

Data set [4] shares this target. As to the kind of experiment: MST; dark; Monolith NT.115; 20 nM DY-647-labelled PtAu1aLOV with a 1:2 dilution series of unlabelled PtAu1aLOV; 20 mM HEPES pH 7.5, 100 mM NaCl, 10% glycerol; dimer to monomers.
Data set [5] has as its target PtAu1a_(bZIP-LOV), truncated PtAu1a variant encompassing the bZIP and LOV domain (Phaeodactylum tricornutum). As to the kind of experiment: SEC-MALS; light: pre-incubated at 20°C under continuous blue light (400 µW cm^-2 at 450 nm) for 20 min; 100 µl of 150 µM protein on Superdex 200 10/300 GL in buffer C, RT, column continuously illuminated; monomer-dimer.
Data set [6] has the same target. As to the kind of experiment: SEC-MALS; dark: pre-incubated at 20°C in the dark for 20 min; 100 µl of 150 µM protein on Superdex 200 10/300 GL in buffer C (20 mM HEPES pH 7.5, 100 mM NaCl, 10 mM MgCl2, 5% glycerol), RT, column kept in the dark; monomer-dimer.
Data set [7] concerns Aureochrome 1a full length (PtAu1afull) (Phaeodactylum tricornutum). As to the kind of experiment: EMSA. To be noted: 10 mM MgCl2, EMSA: 50 nM DNA in buffer C (20 mM HEPES pH 7.5, 100 mM NaCl, 10 mM MgCl2, 5% glycerol) plus 5% glycerol, 20 min at RT, dark or blue light (450 nm), 10% TGE ….

Take “Aureochrome 1a from Phaeodactylum tricornutum, full-length protein (PtAu1a_(full)) (natural protein)”: the stoichiometry N in data set [1] and in data set [2] was 2 throughout.

The substance “PtAu1aLOV, LOV domain of PtAu1a containing its N- and C-terminal α-helical extensions A´α and Jα (domain or fragment)” came in with a stoichiometry N in data set [3] of 2. The Kd in data set [4] was found to be 13.6 µM.

“PtAu1a_(bZIP-LOV), truncated PtAu1a variant encompassing the bZIP and LOV domain (domain or fragment)”: the stoichiometry N in data set [5] and in data set [6] was 2 each time.

“TGTAGCGTCTGACGTGGTTCCCAC (double strand) [24-bp dsCYC2 promoter probe]”: the K half amounted to 90 nM in data set [7] (continuous blue light, EC50, Hill coefficient 1.65) and 860 nM in data set [7] (dark, EC50, Hill coefficient 1.35).

The values are drawn from article PMC4721966.
